“Also recorded” adds a separate entry of the source.
What was measured:
uPA [1] = target: T1, uPA (Homo sapiens, UniProt P00749); assay: Fibrinolysis assay in clots from fresh whole human blood monitored by thromboelastography (TEG), lysis by uPA; assay type: biochemical; conditions: uPA 10 nM; 50 or 500 nM tPA-S481A; FIG. 2C
T1 construct: Single-chain urokinase (uPA) was purified, characterized as previously reported; made in house
Procedure: (§1) Fibrinolysis Assay in Blood Clots Derived from Fresh Whole Human Blood
(§2) Clot viscoelastic properties were assessed by thromboelastography (TEG®, Haemoscope) and rotational thromboelastometry (ROTEM®, Pentapharm). Both systems use a vertical pin within a cup that contains the WB sample. In TEG®, the cup oscillates and the pin is stationary whereas in ROTEM®, the cup is stationary while the pin oscillates. As a clot forms between the cup and the pin, the reduction in transmitted rotation from the cup to the pin (TEG®) or impedance to the oscillatory movement of the pin (ROTEM®) is detected and a trace is generated.

[2] = test system: mice treated with Coumadin and subjected to CHI; assay: Closed head injury (CHI) in mice anticoagulated with warfarin (Coumadin); assay type: in vivo, mouse; conditions: WT mice, INR 2.5; tPA-S481A 1 mg/kg immediately after TBI; Hgb at 2 or 8 hrs; FIG. 6C
From the text: (§3) Closed Head Injury (CHI) Model
(§4) Head trauma was induced by using a modified weight-drop device, as previously described (Chen Y. et al. (1996) J. Neurotrauma, 13:557-568). Briefly, after induction of ether anesthesia, a midline longitudinal incision was made, the skin was retracted and the skull was exposed. The left anterior frontal area was identified and a Teflon tipped cone (2-mm diameter) was placed 1 mm lateral to the midline, in the midcoronal plane. The head was held in place manually and a 75-g weight was dropped on the cone from a height of 18 cm, resulting in focal injury to the left hemisphere. After trauma, the mice received supporting oxygenation with 95% 02 for no longer than 2 min and were then returned to their cages. In sham controls only anesthesia and skin incision were carried out.

uPA [3] = target: T1, uPA; assay: Plasminogen activator activity, chromogenic assay without fibrin, activation by uPA; assay type: biochemical; conditions: FIG. 2D; for plasminogen activation by uPA in the absence of fibrin, in the presence of TA: mutant 100 nM added together with TA
Procedure: (§5) Plasminogen Activator Activity
(§6) Plasminogen activator activity was determined by adding tPA (50 nM) or uPA (20 nM), to a reaction mixture containing Glu-plasminogen and the plasmin chromogenic substrate Spectrazyme PL (100 μM) in phosphate-buffered saline (PBS) at 37° C., and the light absorbance at 405 nm was measured continuously over time. The initial velocities of plasmin generation at the different conditions were calculated from the change in the A405 nm over time. The initial velocity of the reaction at each plasminogen concentration was obtained by calculating the change in the rate of A405 over different time intervals and the results were expressed as the change in optical density (ΔOD) per minute, which represents the slope of the initial velocity of plasminogen activation (Higazi A et al., J Biol Chem. (1995), 270(29):17375-80).

NMDA-Rs = assay: Activation of NMDA-Rs by WT-tPA
WT-tPA = assay: Fibrinolysis assay in human plasma derived clots, lysis by WT-tPA; assay type: biochemical
WT-tPA, sequence (P00750 36-562): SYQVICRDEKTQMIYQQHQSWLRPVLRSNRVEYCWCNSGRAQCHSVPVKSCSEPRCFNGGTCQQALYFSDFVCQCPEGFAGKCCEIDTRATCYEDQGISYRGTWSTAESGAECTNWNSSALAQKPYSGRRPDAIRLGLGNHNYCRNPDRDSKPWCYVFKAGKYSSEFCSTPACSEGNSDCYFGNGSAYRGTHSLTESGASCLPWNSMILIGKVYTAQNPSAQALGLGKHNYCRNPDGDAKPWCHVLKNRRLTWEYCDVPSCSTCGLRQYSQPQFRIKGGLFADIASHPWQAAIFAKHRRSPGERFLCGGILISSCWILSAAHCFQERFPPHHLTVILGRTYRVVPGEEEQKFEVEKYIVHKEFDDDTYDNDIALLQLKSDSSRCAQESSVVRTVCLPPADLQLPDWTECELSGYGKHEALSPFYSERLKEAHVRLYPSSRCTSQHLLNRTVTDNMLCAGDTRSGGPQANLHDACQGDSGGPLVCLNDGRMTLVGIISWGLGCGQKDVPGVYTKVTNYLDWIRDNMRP
Procedure: (§7) Fibrinolysis Assay in Human Plasma Derived Clots
(§8) Clots were formed by placing human plasma (200 μL) in 16-mm diameter tissue culture wells flowed by adding thrombin (0.4 U/mL final concentration). Fibrinolysis was measured as described in Higazi A A et al., Blood (1998), 92(6):2075-83). Briefly, 10 μL tPA or uPA were placed over the plasma clots for 2 hours at 37° C., photographed and the diameter of the wholes were determined.

WT mice subjected to CHI = assay: Closed head injury (CHI) model of TBI in WT mice; assay type: in vivo, mouse
Procedure: Eight to twelve weeks old C57 mice obtained from Harlan, Israel. Mice were administered standard laboratory chow and water ad libitum, and kept in controlled temperature and light conditions. Animal experiments were carried out according to the guidelines of the Hebrew University-Institutional Committee for Care and Use of Laboratory Animals, and with the committee's approval.
as §3, §4

WT tPA = target: T2, WT tPA (Homo sapiens, UniProt P00750); assay: Fibrinolysis assay in clots from fresh whole human blood monitored by thromboelastography (TEG), lysis by WT tPA; assay type: biochemical; conditions: WT tPA 10 nM; 50 or 500 nM tPA-S481A; FIG. 2C
T2 construct: purchased Genentech (South San Francisco, Calif.)
T2 sequence (P00750 36-562): as above
Procedure: as §1, §2

[4] = test system: tPA-/- and uPA-/- mice subjected to CHI; assay: Closed head injury (CHI) model in tPA-/- and uPA-/- mice; assay type: in vivo, mouse; conditions: WT-tPA or WT-uPA 5 mg/kg plus equimolar dose of mutant
From the text: as §3, §4

uPA [5] = target: T1, uPA; assay: Fibrinolysis assay in human plasma derived clots, lysis by uPA; assay type: biochemical; conditions: uPA 50 nM; mutant 50 nM; FIG. 2A, 2B
Procedure: as §7, §8

tPA = assay: Plasminogen activator activity, chromogenic assay without fibrin, activation by tPA; assay type: biochemical, human; conditions: FIG. 2D; for plasminogen activation by tPA in the absence of fibrin, in the presence of TA: mutant 100 nM added together with TA
Procedure: as §5, §6

plasminogen = target: T3, plasminogen (Homo sapiens, UniProt P00747); assay: Ser481-Ala tPA/plasminogen protein interaction assay by co-immunoprecipitation; assay type: binding
T3 construct: Glu-plasminogen was prepared from human plasma; from tissue; host or cells: human plasma
Procedure: Ser^481-Ala tPA/Plasminogen Protein Interaction Assay by Co-Immunoprecipitation
Human Ser^481-Ala tPA and plasminogen, each at 100 nM final concentration in absence or presence of 1 μM uPA or fibrin degradation products, were incubated with goat polyclonal antibody to plasminogen and incubated with Protein A agarose. The protein A agarose beads were separated by centrifugation, washed, and boiled for 5 min. The beads were precipitated by centrifugation and the samples were run on NuPAGE 4-12%. As a control, 80 ng of human Ser^481-Ala tPA was loaded on the gel. The proteins from the gel were transferred onto a PVDF membrane. The membrane was blocked in milk/PBST before incubation for 1 hr with mouse monoclonal antibody to tPA. Subsequently it was washed, incubated with goat anti-mouse IgG-HRP conjugate, washed again, and detected with ECL.

reteplase = reteplase (Homo sapiens, UniProt P00750); assay: Fibrinolysis assay in human plasma derived clots, lysis by reteplase; assay type: biochemical; conditions: reteplase 20 nM, mutant 10 nM, FIG. 2B
Procedure: as §7, §8

B1: tPA-S^481A: catalytically inactive human tPA variant, Ser481 substituted to Ala; SEQ ID NO. 1 (SEQ ID NO. 12 with N-terminal RS) (protein, listed as Homo sapiens)
chain: GARSYQVICRDEKTQMIYQQHQSWLRPVLRSNRVEYCWCNSGRAQCHSVPVKSCSEPRCFNGGTCQQALYFSDFVCQCPEGFAGKCCEIDTRATCYEDQGISYRGTWSTAESGAECTNWNSSALAQKPYSGRRPDAIRLGLGNHNYCRNPDRDSKPWCYVFKAGKYSSEFCSTPACSEGNSDCYFGNGSAYRGTHSLTESGASCLPWNSMILIGKVYTAQNPSAQALGLGKHNYCRNPDGDAKPWCHVLKNRRLTWEYCDVPSCSTCGLRQYSQPQFRIKGGLFADIASHPWQAAIFAKHRRSPGERFLCGGILISSCWILSAAHCFQERFPPHHLTVILGRTYRVVPGEEEQKFEVEKYIVHKEFDDDTYDNDIALLQLKSDSSRCAQESSVVRTVCLPPADLQLPDWTECELSGYGKHEALSPFYSERLKEAHVRLYPSSRCTSQHLLNRTVTDNMLCAGDTRSGGPQANLHDACQGDAGGPLVCLNDGRMTLVGIISWGLGCGQKDVPGVYTKVTNYLDWIRDNMRP
lysis of clots from fresh whole human blood monitored by TEG, by uPA (uPA [1]): inhibited lysis
post-traumatic intracerebral hemorrhage (brain hemoglobin) in warfarin-anticoagulated mice [2]: almost totally inhibited
plasminogen activation by uPA in the absence of fibrin, in the presence of TA (uPA [3]): inhibited the activation of plasminogen by uPA
plasminogen activation by uPA in the absence of fibrin, in the presence of TA (uPA [3]; listed as tPA^Ser481Ala): inhibit plasminogen activation
plasminogen activation by uPA in the absence of fibrin (change in OD per minute) (uPA [3]; plasminogen 500 nM, uPA 20 nM, mutants 100 nM or TA 200 nM alone): Neither tPA-S^481A nor tPA-S^481A-DS inhibited; also recorded: had no effect
activation of NMDA-Rs by WT-tPA (NMDA-Rs): inhibited activation of NMDA-Rs by WT-tPA
potency as inhibitor of fibrinolysis compared with TA (WT-tPA; TA tested at its maximal inhibitory concentration, FIG. 2B): more potent inhibitors of fibrinolysis than TA
lysis of human plasma derived clots by WT-tPA (WT-tPA; WT-tPA 20 nM, mutant 50 nM, FIG. 2A, 2B): inhibited lysis
intracerebral hemorrhage increased by injected WT-tPA post CHI (WT mice subjected to CHI; WT mice given WT-tPA 5 mg/kg immediately after CHI plus equimolar mutant): could be inhibited
plasma levels of d-Dimers post CHI (WT mice subjected to CHI; WT mice, 1 mg/kg IV, measured 2 hours after CHI, FIG. 4A, 1 mg/kg): significantly attenuated the increase in d-Dimers; also recorded: inhibited the formation of d-Dimers
platelet counts / thrombocytopenia post CHI (WT mice subjected to CHI; WT mice, 1 mg/kg IV, measured 2 hours after CHI, FIG. 4B, 1 mg/kg): prevented the development of thrombocytopenia; also recorded: inhibited the development of thrombocytopenia
CSF fibrinolytic activity post CHI (WT mice subjected to CHI; WT mice, IV after CHI, CSF obtained 2 hours after CHI, tested on plasma derived clots): inhibited CSF fibrinolytic activity
intracerebral hemorrhage (MRI, extravasation of Hgb) post CHI (WT mice subjected to CHI; WT mice, IV immediately after or 2 hrs after CHI, Hgb at 2 or 8 hrs, MRI at 24 hrs): significantly attenuated the expansion of intracerebral hemorrhage; also recorded: inhibited
inhibition of intracerebral hemorrhage compared with combination of TA and aprotinin (WT mice subjected to CHI; combination in optimal concentrations, FIG. 3B): comparable to the inhibition induced by a combination of TA and aprotinin
neuroprotection (neurological severity score, NSS) (WT mice subjected to CHI; given 2 hrs after CHI, FIG. 5): the difference in neuroprotection provided by the two tPA variants vanished
neuroprotection (neurological severity score, NSS, 24 hours after CHI) (WT mice subjected to CHI; given IV immediately after CHI, 1 mg/kg, FIG. 5): exerts neuroprotection
potency as inhibitor of intracerebral hemorrhage compared with TA or aprotinin (WT mice subjected to CHI; optimal concentrations of TA or aprotinin, FIG. 3B): more potent inhibitors of intracerebral hemorrhage than optimal concentrations of TA or aprotinin
lysis of clots from fresh whole human blood monitored by TEG, by WT tPA (WT tPA): inhibited lysis
expansion of post traumatic ICH in knock-out mice given exogenous WT-tPA or WT-uPA [4]: inhibited the expansion of the post traumatic ICH
lysis of human plasma derived clots by uPA (uPA [5]): inhibited lysis
plasminogen activation by tPA in the absence of fibrin, in the presence of TA (tPA): inhibited the plasminogen activation induced by tPA
plasminogen activation by tPA in the absence of fibrin, in the presence of TA (tPA; listed as tPA^Ser481Ala): inhibit plasminogen activation
plasminogen activation by tPA in the absence of fibrin (change in OD per minute) (tPA; plasminogen 500 nM, WT-tPA 50 nM, mutants 100 nM or TA 200 nM alone): Neither tPA-S^481A nor tPA-S^481A-DS inhibited; also recorded: had no effect
binding to plasminogen (complex formation) (plasminogen; in the absence of fibrin, 100 nM each): no complexes were formed
binding to plasminogen (complex formation) (plasminogen; in the presence of fibrin, 100 nM each, immunoprecipitated with anti-plasminogen, detected with anti-tPA): binds to plasminogen only in the presence of fibrin; also recorded: formed a stable complex
binding to plasminogen (complex formation) (plasminogen; with fibrin in the presence of 1 μM uPA): inhibited by uPA
clot lysis induced by reteplase (reteplase): inhibit the clot lysis induced by reteplase
clot lysis induced by reteplase (reteplase; listed as tPA^Ser481Ala): inhibit the fibrinolysis

From patent US10188706B2, “Plasminogen activator mutants as anti-fibrinolytic agents” (HADASIT MEDICAL RESEARCH SERVICES & DEVELOPMENT LIMITED, priority 2012, dated 2019)
